For the data set, the system named is IL-1-L0-Fok1 zinc finger nuclease (IL-1-Fok1) (synthetic construct). Description: cell_activity. To be noted: inter-chromosomal HR with donor pDAB1600 in tobacco NT1-240; NT1-260 0.1; BY2-380 0.2; donor only 0.

“ATTATCCGAGTTTAATAGAACTCGGATAAT (double strand) [IL-1-L0-Fok1 recognition site]” came in with an activity (events per selection plate) of 1.2.

(Values after US20100257638.)
